{"source": "paper PMC8563728", "about": "(Nature Communications, 2021)", "binders": {"B1": {"name": "58G6 (antibody, V domains shown)", "VH": "QMQLVQSGPEVKKPGTSVKVSCKASGFTFSSSAVQWVRQARGQHLEWIGWIVVGSGNTNYAQKFQERVTLTRDMSTRTAYMELSSLRSEDTAVYYCAAPNCNSTTCHDGFDIWGQGTVVTVSS", "VL": "EIVLTQSPGTLSLSPGERATLSCRASQSVRSSYLGWYQQKPGQAPRLLIYGASSRATGIPDRFSGSGSGTDFTLTISRLESEDFAVYYCQQYDNSPWTFGQGTKVEIK", "notes": "also called 58G6 mAb; copies: 2 + 2"}}, "molecular_target": "SARS-CoV-2 S1 (SARS-CoV-2, wild type (Wuhan-Hu-1), UniProt P0DTC2)", "assay": "SPR", "settings": "both partners purified"}
{"binder": "B1", "values": [{"measurement": "Kd", "value": 1.08, "unit": "nM"}]}
